{"source": "patent US12202907B2", "about": "“Nucleic acids encoding and methods of producing proteins comprising antibody chains” (Innate Pharma, priority 2018, dated 2025)", "key": {"cell-membrane bound CD39": {"biological_target": "T1, cell-membrane bound CD39 (Homo sapiens, UniProt P49961)", "T1 sequence (P49961 1-510)": "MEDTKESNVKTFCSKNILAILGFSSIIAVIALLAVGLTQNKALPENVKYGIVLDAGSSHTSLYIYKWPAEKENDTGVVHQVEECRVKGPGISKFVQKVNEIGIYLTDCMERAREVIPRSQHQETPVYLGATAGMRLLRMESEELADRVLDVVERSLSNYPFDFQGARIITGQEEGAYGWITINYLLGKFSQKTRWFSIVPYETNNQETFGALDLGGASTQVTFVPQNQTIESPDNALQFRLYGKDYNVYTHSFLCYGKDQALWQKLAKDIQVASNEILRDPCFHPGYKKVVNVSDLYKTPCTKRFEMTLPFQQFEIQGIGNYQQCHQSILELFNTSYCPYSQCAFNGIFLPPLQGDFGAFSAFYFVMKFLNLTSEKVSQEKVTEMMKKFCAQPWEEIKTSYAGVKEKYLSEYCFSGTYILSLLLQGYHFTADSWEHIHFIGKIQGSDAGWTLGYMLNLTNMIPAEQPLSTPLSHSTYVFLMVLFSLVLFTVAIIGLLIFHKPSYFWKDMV", "assay": "Inhibition of the enzymatic activity of cellular CD39 (cells not specified)", "assay_type": "cell-based", "procedure": "(§1) The inhibition of the CD39 enzymatic activity in CD39-expressing cells by antibodies was evaluated using Cell Titer GIo™ (Promega, reference G7571) that allows assessment of ATP hydrolysis through use of a reagent that generates a luminescent signal proportional to the amount of ATP present. The assay was thus designed to permit assessment of the inhibition of ATP hydrolyzed by CD39 in the cell culture supernatant. Briefly, 5×10^4 Ramos human lymphoma cells, 5×10^3 human CD39−, cynomolgus CD39—and mouse CD39− expressing CHO cells, were incubated 1 hour at 37° C. with anti-CD39 antibodies from 30 μg/ml to 5×10^−4 μg/ml. Cells were then incubated with 20 μM ATP for 1 additional hour at 37° C. Plates were centrifuged for 2 min at 400 g and 50 μl cell supernatant are transferred in a luminescence microplate (white wells). 50 μl CellTiter-Glo™ Reagent (CTG) was added to the supernatant and emitted light was quantified after a 5 min incubation in the dark using a Enspire™ luminometer. Anti-CD39 antibody efficacy was determined by comparing emitted light in presence of antibody with ATP alone (maximal light emission) and ATP together with cells (minimal light emission)."}, "[1]": {"biological_target": "T2, CD39 expressed by Ramos human lymphoma cells (Homo sapiens, UniProt P49961)", "T2 construct": "cells that endogenously express CD39 at their surface; host or cells: Ramos", "T2 sequence (P49961 1-510)": "T1 sequence (P49961 1-510)", "assay": "Inhibition of the enzymatic activity of cellular CD39 in Ramos cells", "assay_type": "cell-based", "procedure": "as §1"}, "[2]": {"biological_target": "T3, human CD39 expressing CHO cells (CHO-huCD39) (Homo sapiens, UniProt P49961)", "T3 construct": "expressed in transfected cells; host or cells: CHO", "T3 sequence (P49961 1-510)": "T1 sequence (P49961 1-510)", "assay": "Inhibition of the enzymatic activity of cellular CD39 in CHO-huCD39", "assay_type": "cell-based", "conditions": "qualitative", "procedure": "as §1"}, "[3]": {"test_system": "cynomolgus CD39 expressing CHO cells (CHO-cyCD39)", "assay": "Inhibition of the enzymatic activity of cellular CD39 in CHO-cyCD39", "assay_type": "cell-based, cynomolgus (Macaca fascicularis)", "conditions": "qualitative", "procedure": "as §1"}, "[4]": {"biological_target": "T4, human Ramos lymphoma cells (CD39) (Homo sapiens, UniProt P49961)", "T4 construct": "cells that endogenously express CD39 at their surface; host or cells: Ramos", "T4 sequence (P49961 1-510)": "T1 sequence (P49961 1-510)", "assay": "Antibody titration on Ramos cells by flow cytometry", "assay_type": "binding", "conditions": "qualitative", "procedure": "Antibody I-394 was tested in two repeated experiments for binding to CHO cells expressing human CD39, CHO cells expressing cynomolgus (Macaca fascicularis) CD39, CHO cells expressing murine CD39, and human Ramos lymphoma cells (ATCC™, reference CRL-1596). Cells were incubated with various concentration of unlabeled anti-CD39 antibody from 30 μg/ml to 5×10^−4 μg/ml, for 30 minutes at 4° C. After washes, cells were incubated with Goat anti-mouse H+L labeled secondary antibody for 30 min at 4° C."}, "[5]": {"biological_target": "T5, Human CD39-L1 (NTPDase2, ENTPD2) (Homo sapiens, UniProt Q9Y5L3)", "T5 sequence (Q9Y5L3 1-472 isoform Q9Y5L3-2)": "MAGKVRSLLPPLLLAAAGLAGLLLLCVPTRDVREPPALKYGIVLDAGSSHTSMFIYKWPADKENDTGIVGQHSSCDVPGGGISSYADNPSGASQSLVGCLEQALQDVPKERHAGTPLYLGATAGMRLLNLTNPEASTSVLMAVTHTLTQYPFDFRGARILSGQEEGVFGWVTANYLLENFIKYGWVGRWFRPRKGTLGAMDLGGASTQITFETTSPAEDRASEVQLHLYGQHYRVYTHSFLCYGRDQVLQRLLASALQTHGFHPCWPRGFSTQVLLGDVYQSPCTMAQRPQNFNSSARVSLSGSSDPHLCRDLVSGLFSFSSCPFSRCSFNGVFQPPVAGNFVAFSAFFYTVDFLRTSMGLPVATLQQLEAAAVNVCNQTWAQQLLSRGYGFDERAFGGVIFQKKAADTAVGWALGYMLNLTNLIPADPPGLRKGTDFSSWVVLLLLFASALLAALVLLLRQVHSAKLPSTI", "assay": "ELISA titration on CD39-L1", "assay_type": "binding", "procedure": "(§2) Antibody I-394 was tested for binding to recombinant human CD39 isoforms (Rec-huCD39 isoforms) having amino acid sequences shown below were coated in 96-well plate in PBS 1X at 500 ng/ml or 1 μg/ml at 4° C. overnight. Wells were washed in TBS Tween® 20 (polysorbate 20), and further saturated 2H at RT in TBS Blocking buffer. Dose range concentration of primary antibody was incubated in TBS blocking buffer for 2 h at RT. Wells were washed in TBS Tween® 20 (polysorbate 20). […] Optical density was measured on Enspire™ at OD=450."}, "[6]": {"test_system": "monocyte-derived DC (moDC)", "assay": "Activation of dendritic cells in the presence of ATP", "assay_type": "cell-based, human", "conditions": "ATP 0.125 mM, 0.25 mM or 0.5 mM; I-394 at 10 μg/ml", "procedure": "Briefly, human monocytes were purified from human healthy blood and differentiated into MoDC in presence of GM-CSF and IL-4 during 6 days. […] In some cases, MoDC were preincubated for 1 hour in presence of CD39 inhibitor: […] (Tocris, 250 μM), CD73 inhibitor: APCP (Tocris 50 μM), anti-CD39 blocking antibody I-394 or BY40 (for BY40 see WO2009/095478), or anti-CD73 blocking antibodies. LPS (Invivogen, 10 ng/ml) was used as positive control. To assess resulting effect of ATP-mediated DC activation on CD4 T cells activation, ATP-activated DC were washed and then incubated with allogenic CD4 T cells (ratio 1 MoDC/4 T cells) for a mixed lymphocytes reaction (MLR) during 5 days. T cells activation and proliferation were analyzed through CD25 expression and Cell Trace Violet dilution by flow cytometry (FIG. 8)."}, "CD39": {"biological_target": "T6, CD39 (Homo sapiens, UniProt P49961)", "T6 sequence (P49961 1-510)": "T1 sequence (P49961 1-510)", "assay": "ELISA titration on huCD39 (vascular isoform)", "assay_type": "binding", "set-up": "made in house", "procedure": "as §2"}}}
{"substance": "I-394: anti-CD39 antibody, VH SEQ ID NO: 6, VL SEQ ID NO: 7, human IgG1 Fc with L234A/L235E/G237A/A330S/P331S", "values": [{"measurement": "potency and maximal inhibition of cellular CD39 compared to BY40", "setting": "cell-membrane bound CD39; FIG. 2A", "result": "greater potency and maximal inhibition of cellular CD39 compared to BY40"}, {"measurement": "inhibition of cell-membrane bound (cellular) CD39 ATPase activity", "setting": "cell-membrane bound CD39; qualitative", "result": "inhibit cell-membrane bound CD39"}, {"measurement": "inhibition maximum, cellular CD39", "setting": "[1]; Ramos cells", "result": 81.6, "unit": "%"}, {"measurement": "potency at blocking CD39 enzymatic activity relative to other antibodies", "setting": "[1]; Ramos cells", "result": "greater potency compared to all other antibodies tested"}, {"measurement": "blocking CD39 enzymatic activity in tumor (Ramos) cells", "setting": "[1]; qualitative", "result": "highly potent at blocking CD39 enzymatic activity"}, {"measurement": "blocking CD39 enzymatic activity in CHO-huCD39", "setting": "[2]", "result": "blocks CD39 enzymatic activity"}, {"measurement": "blocking CD39 enzymatic activity in CHO-cyCD39", "setting": "[3]", "result": "blocks CD39 enzymatic activity"}, {"measurement": "binding to Ramos lymphoma cells", "setting": "[4]", "result": "bound"}, {"measurement": "binding to CD39-L1 in ELISA", "setting": "[5]", "result": "not to any of the isoforms CD39-L1, -L2, -L3 or -L4"}, {"measurement": "ATP-induced moDC activation (HLA-DR or CD83 expression)", "setting": "[6]", "result": "permitted moDC activation"}, {"measurement": "binding to CD39 in ELISA", "setting": "CD39", "result": "bound to the CD39"}]}
